Laboratory results from US20200247855A1, “THERAPY AND DIAGNOSTICS” (OXFORD UNIVERSITY INNOVATION LIMITED, priority 2017, published 2020).
Read-outs that look alike come from different tables or passages of the source.

T1: CCL8_HUMAN (Homo sapiens, UniProt P80075)
T1 sequence (P80075 24-99): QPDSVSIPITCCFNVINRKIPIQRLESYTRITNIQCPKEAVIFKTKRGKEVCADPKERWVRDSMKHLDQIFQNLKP

T2: CCL16_HUMAN (Homo sapiens, UniProt O15467)
T2 sequence (O15467 24-120): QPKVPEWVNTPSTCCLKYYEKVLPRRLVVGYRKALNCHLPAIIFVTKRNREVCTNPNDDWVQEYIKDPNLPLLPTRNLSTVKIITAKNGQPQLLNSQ

T3: CCL14_HUMAN (Homo sapiens, UniProt Q16627)
T3 sequence (Q16627 20-93): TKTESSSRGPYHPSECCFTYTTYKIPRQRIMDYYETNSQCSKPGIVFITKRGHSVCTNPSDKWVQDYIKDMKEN

T4: CCL15_HUMAN (Homo sapiens, UniProt Q16663)
T4 sequence (Q16663 22-113): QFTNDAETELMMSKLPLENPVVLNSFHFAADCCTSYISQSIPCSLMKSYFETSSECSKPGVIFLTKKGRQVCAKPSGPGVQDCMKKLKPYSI

T5: CCL3_HUMAN (Homo sapiens, UniProt P10147)
T5 sequence (P10147 24-92): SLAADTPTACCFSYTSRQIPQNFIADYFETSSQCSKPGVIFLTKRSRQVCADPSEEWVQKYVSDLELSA

B1: EVASIN4: previously described tick CKBP evasin 4, from Rhipicephalus sanguineus (protein, listed as Rhipicephalus sanguineus)
chain: EVPQMTSSSAPDLEEEDDYTAYAPLTCYFTNSTLGLLAPPNCSVLCNSTTTWFNETSPNNASCLLTVDFLTQDAILQENQPYNCSVGHCDNGTCAGPPRHAQCW
B2: P672_RHIPU: tick CKBP, Rhipicephalus pulchellus (protein, listed as Rhipicephalus pulchellus)
chain: VCEVSEQEGVGEDNATEDEDYEDFFKPVTCYFANSTVGPLRPPNCTVVCTNNTAWWNDTKSDGGHCYSEYRPEKRTHSREIYNCTIGVCGNGTCIANHTYADCW
B3: P1243_AMBAM: tick CKBP, Amblyomma americanum; AAM-02 stated identical (protein, listed as Amblyomma americanum)
chain: RNHTEDNSTEYYDYEEARCACPARHLNNTNGTVLKLLGCHYFCNGTLCTAPDGYPCYNLTAQQVRTLTTYPNTSCAVGVCMKGTCVKNGTMEQCFKTP

Columns and labels:
[1] = molecular target: T1, CCL8_HUMAN; conditions: read-out: Kd, CCL8_HUMAN, previously described evasins; data obtained from publications [20-22,32]; cited from earlier work
[2] = molecular target: T1, CCL8_HUMAN; assay: Biolayer interferometry (BLI) binding
Outline: (§1)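 Binding was measured by biolayer interferometry with the His-tagged tick protein bound to Ni-NTA sensors. A single-concentration screen used chemokine at 300 nM. Chemokines that bound were retested over multiple doses, and Kd was calculated from fitted curves.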

[3] = molecular target: CCL3L1_HUMAN (Homo sapiens, UniProt P16619); assay: Biolayer interferometry (BLI) binding
Outline: as §1

[4] = molecular target: T2, CCL16_HUMAN; assay: Biolayer interferometry (BLI) binding
Outline: as §1

[5] = molecular target: CCL7_HUMAN (Homo sapiens, UniProt P80098); assay: Biolayer interferometry (BLI) binding
Outline: as §1

[6] = molecular target: T3, CCL14_HUMAN; assay: Biolayer interferometry (BLI) binding
Outline: as §1

[7] = molecular target: T4, CCL15_HUMAN; assay: Biolayer interferometry (BLI) binding
Outline: as §1

[8] = molecular target: T5, CCL3_HUMAN; assay: Biolayer interferometry (BLI) binding
Outline: as §1

CCL3L1_HUMAN, sequence (P16619 24-93): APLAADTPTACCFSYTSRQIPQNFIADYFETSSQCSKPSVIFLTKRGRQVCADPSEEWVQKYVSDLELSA
CCL7_HUMAN, sequence (P80098 24-99): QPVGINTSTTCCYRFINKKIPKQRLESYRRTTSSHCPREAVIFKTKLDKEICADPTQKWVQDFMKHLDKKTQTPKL

| Molecule | Kd [1] | Kd ([2]; read-out: Kd for CCL8) | Kd [3] | Kd [4] | Kd [5] | Kd [6] | Kd [7] | Kd [8] | Kd ([2]; read-out: Kd, CCL8_HUMAN) |
| --- | --- | --- | --- | --- | --- | --- | --- | --- | --- |
| B1 | 0.25 nM |  |  |  |  |  |  |  |  |
| B2 |  | 3.7 nM | 2.7 nM | 3.3 nM | 16 nM | 5.5 nM | 32 nM | 2.6 nM |  |
| B3 |  |  | 5.05 nM | 0.926 nM | 8.66 nM | 0.816 nM | 9.61 nM | 5.3 nM | 21.9 nM |
